According to article PMC5317272 (The Biochemical journal, 2016):

What was measured:
[1] = molecular target: MARK1 kinase–UBA domain fragment (residues 45–371), hexahistidine tag intact (human, UniProt Q9P0L2 45-371); assay: SPR
[2] = molecular target: MARK1 kinase–UBA domain fragment (residues 45–371), tag-cleaved (human, UniProt Q9P0L2 45-371); assay: SAXS
Chain of MARK1 kinase–UBA domain fragment (residues 45–371), tag-cleaved (Q9P0L2 45-371): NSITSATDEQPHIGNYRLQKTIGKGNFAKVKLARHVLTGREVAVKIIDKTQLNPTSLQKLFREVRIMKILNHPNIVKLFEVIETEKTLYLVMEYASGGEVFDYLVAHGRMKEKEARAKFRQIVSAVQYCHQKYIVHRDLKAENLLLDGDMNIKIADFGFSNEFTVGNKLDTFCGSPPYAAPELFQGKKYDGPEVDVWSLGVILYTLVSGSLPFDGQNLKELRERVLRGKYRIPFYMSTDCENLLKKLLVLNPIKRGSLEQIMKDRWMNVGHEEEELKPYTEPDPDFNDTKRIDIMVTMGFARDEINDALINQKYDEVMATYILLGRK

Chain of MARK1 kinase–UBA domain fragment (residues 45–371), hexahistidine tag intact (Q9P0L2 45-371): as above

B1: MARK1 KA1 domain (residues 683–795) (domain or fragment)
chain: not shown
- Kd [1]: 73 µM
- stoichiometry N [2]: 1
